# Data from patent publication US20080274976A1.
# Values joined by “and” are separate entries in the source; they are usually repeats but may differ in a detail not shown here. Equal entries are not always repeated.
# Columns and labels:
# [1] = molecular target: TSha1 K+ channel from trout (trout); assay: open channel binding, ratio of Table III values
# [2] = molecular target: TSha1 K+ channel from trout (trout); assay: closed channel binding, ratio of Table III values
# [3] = molecular target: Shaker-Δ6-46 K+ channel (UniProt P08510); assay: comparison of open- and closed-state KD, voltage clamp in Xenopus oocytes
# Sequence of Shaker-Δ6-46 K+ channel (P08510 other isoform, or with tags, fused parts or gaps mutant): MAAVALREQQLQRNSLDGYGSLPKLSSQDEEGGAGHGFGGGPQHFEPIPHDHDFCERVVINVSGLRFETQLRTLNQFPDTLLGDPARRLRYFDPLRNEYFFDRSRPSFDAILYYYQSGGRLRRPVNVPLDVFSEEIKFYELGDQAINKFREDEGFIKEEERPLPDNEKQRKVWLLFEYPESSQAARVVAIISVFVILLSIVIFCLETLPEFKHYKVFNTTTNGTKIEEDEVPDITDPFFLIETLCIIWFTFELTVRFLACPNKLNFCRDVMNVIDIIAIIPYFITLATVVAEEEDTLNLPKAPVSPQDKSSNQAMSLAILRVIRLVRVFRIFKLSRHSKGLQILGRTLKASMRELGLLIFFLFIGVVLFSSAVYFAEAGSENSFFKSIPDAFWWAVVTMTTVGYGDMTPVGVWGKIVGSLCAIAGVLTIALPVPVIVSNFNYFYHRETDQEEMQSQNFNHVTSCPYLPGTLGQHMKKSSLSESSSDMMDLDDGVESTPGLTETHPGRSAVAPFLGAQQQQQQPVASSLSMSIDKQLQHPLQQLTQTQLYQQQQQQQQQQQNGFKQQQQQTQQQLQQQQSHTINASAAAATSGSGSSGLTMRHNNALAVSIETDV
# Sequence of TSha1 K+ channel from trout (trout) (Q9I830 whole entry): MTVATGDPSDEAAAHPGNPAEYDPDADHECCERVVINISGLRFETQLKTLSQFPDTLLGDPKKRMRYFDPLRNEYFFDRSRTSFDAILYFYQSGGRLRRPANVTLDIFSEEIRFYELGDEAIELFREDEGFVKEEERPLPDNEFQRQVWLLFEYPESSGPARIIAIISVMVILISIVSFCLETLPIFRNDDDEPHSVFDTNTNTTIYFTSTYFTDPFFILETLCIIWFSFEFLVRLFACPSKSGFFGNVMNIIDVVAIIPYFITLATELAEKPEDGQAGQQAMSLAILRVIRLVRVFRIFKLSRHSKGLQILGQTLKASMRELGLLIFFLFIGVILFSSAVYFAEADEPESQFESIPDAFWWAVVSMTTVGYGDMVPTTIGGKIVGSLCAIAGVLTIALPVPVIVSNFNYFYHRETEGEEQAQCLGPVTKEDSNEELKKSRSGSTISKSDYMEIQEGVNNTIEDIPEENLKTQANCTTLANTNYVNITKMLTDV
substance,measurement,setting,value
κM-conotoxin RIIIK (peptide),fold higher k(O)on than in the Shaker-Δ6-46 channel,[1],3 fold
same,fold smaller k(O)off than in the Shaker-Δ6-46 channel,[1],20 fold
same,fold higher k(C)on than in the Shaker-Δ6-46 channel,[2],4 fold
same,fold lower affinity for the open state (0 mV) than for the closed state,[3],3 fold and 4 fold
